Measured values: the RNAGym collection of RNA variant scans (doi:10.1073/pnas.2313332121)

B1: TPR t1 (parent)
chain: GACCAAUCUGCCCUCAGAGCUCGAGAACAUCUUCGGAUGCAGAGGAGGCAGGCUUCGGUGGCGCGAUAGCGCCAACGUCCUCAACCUCCAAUGCAUCCCACCACAUGAUGAUGCCUGAAGAGCCUUGGUUUUUUG

Variants of: B1
Test: polymerase ribozyme fitness, log enrichment relative to wild type (log ratio); higher = more active; in vitro selection for triplet polymerase activity
Procedure, shortened: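 PCR was used to build mutant libraries for each subunit of a heterodimeric triplet polymerase ribozyme, which were then transcribed. A single in vitro selection round, in triplicate, used a frozen incubation at −7 °C and recovered extended constructs by gel excision, streptavidin beads and RT-PCR. Fitness is the logarithm of genotype enrichment relative to wild-type enrichment, averaged over replicates with inverse-variance weights. The logarithm is base 2, and after Illumina sequencing only genotypes with ≥10 input reads and ≥1 read per output were kept.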

Variant | polymerase ribozyme fitness (log ratio)
GACCAAUCCGCCCUCAGAGCUCGAGAACAUCUUCGGAUGCAGAGGAGGCAGGCUUCGGUGGCGCGAUAGCGCCAACGUCCCCAACCUCCAAUGCAUCACACCACAUGAUGAUGCCUGAAGAGCCUUGGUUUUUUG [U9C U81C C98A] | -5.87
GACCAAUCGGCCCUCAGAGCUCGAGACCAUCUUCGGAUGCAGAGGAGGCAGGCUUCGGUGGCGCGAUAGCGCCAACGUCCUCAACCUCCAAUGCAUCCCACCACAUGAUGAUGACUGAAGAGCCUUGGUUUUUUG [U9G A27C C114A] | -3.98
GACCAAUCCGCCCUCAGAGCUCGAGAACAUCUUCGGAUGCAGAGGAGGCAGGCUUCGGUAGCGCGAUAGCGCCAACGUCCUCAACCUCCAAUGCAUCCCACGACAUGAUCAUGCCUGAAGAGCCUUGUUUUUUUG [U9C G60A C102G G110C G128U] | -7.66
GACCAAUCGGCCCUCAGAGCUCGAGAUCAUCUUCGGAUGCAGAGGAGGCAGGCUUCGGUGGCGCGAUAGCGCCAACGUCCUCAACCUCCAAUGCAUCCCUCCACAUGAUGAUGCCUGAAGAGCCUUGGUUUUUUG [U9G A27U A100U] | -3
GACCAAUCGGCCCUCAGAGCUCGAGAACGUCUUCGGAUGCAUAGGAGGCAGGCUUCGGUGGCGCGAUAGCGCCAACGUCCUCAACCUCCAAUGCAUCCCACCACAUGAUGAUGCCUGAAGAGCCUUGGUUUUUUG [U9G A29G G42U] | -2.93
GACCAAUCCGCCCUCAGAGCUCGAGAACAUCUUCGGAUGCAGAGGAGGCAGGCUUCGGUGGCGCGAUAGCGCCAACGUCCUCAACCUCCAAUGCAUCCCACCACAUUAUGAAGCCUGAGGAGCCUUGGUUUUUUG [U9C G107U U112A A119G] | -4.69
GACCAAUCGGCCCUCAGAGCUCGAGCACAUCUUCGGAUGCAGAGGAGGCAGGCUUCGGUGGCGCGAUAGCGCCAACGUCCUCAACCUCCAAUGCAUCCCACCACAUGAUGAUGCCUGAAGAGCCUUGGUUUUUUG [U9G A26C] | -4.47
GACCAAUCCGCCCUCAGAGCUCGAGAACAUCUUCGGAUGCAGAGGAGGCAGGCUUCGGUGGCGCGAUAGCGCCAACGUCCUCAACCUCCAAUGCAUCCCACCACAUGAUGAUGCCCGAAGAGCCUUGGAUUUUUG [U9C U116C U129A] | -0.962
GACCAAUCGGCCCUCAGAGCUCGAGAACGUCUUCGGAUUCAGAGGAGGCAGGCAUCGGUGGCGCGAUAGCGCCAACGUCCUCUACCUCCAAUGCAUCCCACCACAUGAUGAUGCCUGAAGAGCCUUGGUUUUUUG [U9G A29G G39U U54A A83U] | -3.38
GACCAAUCCGCCCUCAGAGCUCGAGAACAUCUUCGGAUGCAGAGGAGGCAGGCUUCGCUGGCGCGAUAGCGCCAACGUCCUCAACCUCCAAUGCAUCCCACCACAUGAUGAUGACUGAAGAGCCUUUGUUUUUUG [U9C G58C C114A G127U] | -3.7
GACCAAUCGGCCCUCCGAGCUCGAGAACAUCUUCGGAUGCAGAGGAGGCAGGCUUCGGUGGCGCGAUUGCGCCAACGUCCUCAACCUCCAAUGCAUCCCACCACAUGAAGAUGCCUGAAGAGCCUUGGUUUUUUG [U9G A16C A68U U109A] | -6.08
GACCAAUCGGCCCUCAGAGCUCGAGGACAUCUUCGGAUGCAGAGUAGGCAGGCUUCGGUGGCGCGAUAGCGCUAACGUCCUCAACCUCCAAUGCAUCCUACCACAUGAUGAAGCCUGAAGAGCCUUGGUUUUUUG [U9G A26G G45U C73U C99U U112A] | -4.85
GACCAAUCGGCCCUCAGAGCUCGAGAACAUCUUCGGUUGCAGAGGAGGCAGGCUUCGGUGGCGCGAUAGCGCCAACGUCCUCAACCUCCAAUGCAUCCCCCCACAUGAUGAUGCCUGAAGAGCCUUGGUUUUUUG [U9G A37U A100C] | -0.694
GACCAAUCCGCCCUCAGAGCUCGAGAACAUCUUCGGAUGCAGAGGAGGCAGGCUUCGGUGGCACGAUAGCGCCCACGUCCUCAACCUCAAAUGCAUCCCACCAAAUGAUGACGCCUGAAGAGCCUUGGUUUUUUG [U9C G63A A74C C89A C104A U112C] | -5.39
GACCAAUCGGCCCUCAGUGCUCGAGAACAUCUUCGGAUGCAGAGGAGGCAGGCUUAGGUGGCGCGAUAGCGCCAACGUCCUCAACCGCCAAUGCAUCCCACCACAUGAUGAUGCCUGAAGAGCCUUGGUUUUUUG [U9G A18U C56A U87G] | -2.1
GACCAAUCCGCCCUCAGAGCUCGAGAACAUCUUCGGAUGCAGAGGAGGCAGGCUUCGGUUGCGCGAUAGCGCCAACGUCCUCAACCUCCAAUGCAUCCCACCACAUGAUGAUGCCUGAAGAGCCUUGGUUUUUUG [U9C G60U] | 0.0949
GACCAAUCCGCCCUCAGAGCUCGAGAACAUCUUCGGAUGCAGAGGAGGCAGGCUUCGGUGGCGCGAUAGCGCCAACGUCCUCAACCUCCAAUGCAUCCCACCACAUGAUGAUAGCUGAAGAGCCUUGGUUUUUUG [U9C G113A C114G] | -0.741
GACCAAUCGGCCCUCAGAGCUCGAGAGCAUCUUCGGAUGCAGAGGAGGCAGGCUUCGGUAGCGCGCUAGCGCCAACGGCCUCAACCUCCAAUGCAUCCCACCACAUGAUGAUUCCUGAAGAGCCUUGGUUUUUUG [U9G A27G G60A A66C U78G G113U] | -6.12
GACCAAUCCGCCCUCAGAGCUCGAGAACAUCUUCGGAUGCAGAGGAGGCAGGCUGCGGUGGCGCGAUAACGCCAACGUCCUCAACCUCCAAUGCAUCCCACCACAUGAUGAUGCCUGAAGAGCCUUGGUUUUUUG [U9C U55G G69A] | -1.8
GACCAAUCCGCCCUCAGAGCUCGAGAACAUCUUCGGAUGCAGAGGAGGCAGGCUUCGGUGACGCGAUAGCGCCAACGUCCUCAACCUCCAAUGCAUCCCACCACAUGAUGAUGCCUGAAGAGCCUUGGUUUUUUG [U9C G61A] | 0.487
GACCAAUCCGCCCUCAGAGCUCGAGAACAUCUUCGGAUGCAGAGGAGGCAGGCUUCGGUGGCGCGAUAUCGCCAACGUCCUCAACCUCCAAUGCAUCCCACCACAUGAUGAUGCCUGAAGAGCCUUGGUGUUUUG [U9C G69U U130G] | 0.198

Variant | polymerase ribozyme fitness (log ratio)
GACCAAUCGGCCCUCAGAGCUCGAGAACAUCUUCGGCUGCAGAUGAGGCAGGCUUCGGUGGCGCGAUAGCGCCAACGUCCUCAACCUCCAAUGCAUCCCACCACAUGAUGAUGCCUGAAGAGCCUUGGUUUUUUG [U9G A37C G44U] | -1.47
GACCAAUCCGCCCUCAGAGCUCGAGAACAUCUUCGGAUGCAGAGGAGGCAGGCUUCGGUGGCCCGAUAGCGCCAACGUCCUCAACCUCCAAUGCAGACCACCACAUGAUGAUGCCUGAAGAGACUUGGUUUUUUG [U9C G63C U96G C97A C123A] | -3.72
GACCAAUCCGCCCGCAGAGCUCGAGAACAUCUUCGGAUGCAGAGGAGGCAGGCUUCGGUGGCGCGAUAGCGCCAACGUCGUCAACCUCCAAUGCAUCCCACCACAUGAUGAUGCCUGAAGAGCCUUGGUUUUUUG [U9C U14G C80G] | -6.05
GACCAAUCGGCCCUCAGAGCUCGAGACCAUCUUCGGAUGCAGAGGAGGCAGGCUUCGGUGGUGCGAUAGUGCCAACGUCCUCAACCUCCAAUGCAUCUCACCACAUGAUGAUGCCUGAAGAGCCUUGGUUUUUUG [U9G A27C C62U C70U C98U] | -6.21
GACCAAUCCGCCCUCAGAGCUCGAGAACAUCUUCGGAUGCAGAGGAGGCAGGCUUCGGUGGCGCGAUAGCGCCAACGGCCUCAACCUCCAAUGCAUCCCACCUCAUGAUGAUGCCUGAAGAGCCUUGGUUUUUUG [U9C U78G A103U] | -5.95
GACCAAUCCGCCCUCAGAGCUCGAGAACAUCUUCGGAUGCAGAGGAGGCAGGCUUCGGUGGCGCGAUAACGCCAACGUCCUCAACCUCCAAUGCAUCCCACCACAUGAUGAUGCCUGAAGAGCCUUGGUUUUUUG [U9C G69A] | -2.17
GACCAAUCCGCCCUCAGAGCUCGAGAACAUCUUCGGAUGCAGAGGAGGCAGGCUUCGGUGGCGCGAUAUCGCCAACGUCCUCAACCUCCAAUGCAUCCCACCACAUGAUGAUGCCUGAAGAGCCUUGGUUUUUUG [U9C G69U] | 1.23
GACCAAUCCGCCCUCAGAGCUCGAGAACAUCUUCGGAUGCAGAGGAGGCAGGCUUCGGUUGCGCGAUAGCGCCAACGUCCUUAACCUCCAAUGCACCCCACCACAUGAUGAUGCCUGAAGAGCCUUGGUUUUUUG [U9C G60U C82U U96C] | 0.305
GACCAAUCCGCCCUCAGAGCUCGAGAACAUCUUCGGAUGCAGAGGAGGCAUGCUUCGGUGCCGCGAUAGCGCCAACGUCCUCAACCUCCAAUGCAUACCACCACAUGAUGAUGCCUGAAAAGCCUUGGUCUUUUG [U9C G51U G61C C97A G120A U130C] | -4.88
GACCAAUCCGCCCACAGAGCUCGAGAACAUCUUCGCAUGCAGAGGAGGCAGGCUUCGGUGGCGCGAUAGCGCCAACGUCCUCAACCUCCAAUGCAUCCCACCACAUGAUGAUGCCUGAAGAGCCUUGGUUUUUUG [U9C U14A G36C] | -1.95
GACCAAUCCGCCCUCAGAGCUCGAGAACAUCUUCGGAUGCAGAGGAGGCAGGCUUCGGUGGCGCGAUAUCGCCAACGGCCUCAACCUCCAAUGCAUCCCACCUCAUGAUGAUGCCUGAAGAGCCUUGGUUUUUUG [U9C G69U U78G A103U] | -1.88
GACCAAUCGGCCCUCUGAGCUCGAGAACAUCUUCGGAUGCAGAGGAGGCAGGCUUCGGCGGCGCGAUAGCGCCAACGUCCACAACCUCCAAUGAAUCCCACCACAUGAUGAUGCCUGAAGAGCCUUGGUUUUUUG [U9G A16U U59C U81A C94A] | -1.92
GACCAAUCCGCCCUCAGAGCUCGAGAACAUCUUCGGAUGCAGAGGAGGCAGGCUUCGGUGGCGCGAUAUCGGCAACGUCCUCAACCUCCAAUGCAUCCCACCACAUGAUGAUGCCUGAAGAGCCUUGGUUUUUUG [U9C G69U C72G] | -1.2
GACCAAUCCGCCCUCAGAGCUCGAGAACAUCUUCGGAUGCAGAGGAGGCAGGCUUCGGUGGCGCGAUAGCGCCAACGUCCUCAACCUCCAAAGCAUCCCACCACAUGAUGAUGCCUGAAGAGCCUUGGUUUUUUG [U9C U92A] | -1.27
GACCAAUCCGCCCUCAGAGCUCGAGAACAUCUUCGGAUGCAGAGGAGGCAGGCUUCGGUGGCGCGAUAUCGCCAACGUCCUCUACCUCCAAUGCAUCCCACCACAUGAUGAUGCCUGAAGAGCCUUGGUUUUUUG [U9C G69U A83U] | -0.05
GACCAAUCGGCCCUCUGAUCUCGAGAACAUCUUCGGGUGCAGUGGAGGCAGGCUUCGGUGGCGCGAUAUCGCCAACGUCCUCAACCUCCAAUGCAUCCCAACACAUGAUGAUGCCUGAAGAGCCUUGGUUUUUUG [U9G A16U G19U A37G A43U G69U C101A] | -4.92
GACCAAUCCGCCCUCAGAGCUCGAGAACAUCUUCGGAUGCAGAGGAGGCAGGCUUCGGUAGCGCGAUAGCGCCAACGUCUUCAACCUCUAAUGCAUCCCACCACAUGAUGAUGCCUGAAGAGCCUUGGUUUUUUG [U9C G60A C80U C89U] | -1.82
GACCAAUCGGCCCUCAGAGCUCGAGCACAUCUUCGGGUGCAGAGGAGGCAGGCUUCGGUGGCGCGAUAGCGCCAACGUCCUCAACCUCCAAUGCAUCCCACCACAUGAUGUUGCCUGAAGAGCCUUGGUUCUUUG [U9G A26C A37G A111U U131C] | -5.09
GACCAAUCCGCCCUCAGAGCUCGAGAACAUCUUCGGAUGCAGAGGAGGCAGGCUUCGGUGACGCGAUAGCGCCAACGUCCUCAACCUCUAAUGCAUCCCACCACCUGAUGAUGCCUGAAGAGCCUUGGUUUUUUG [U9C G61A C89U A105C] | -3.08
GACCAAUCGGCCCUCAGAGCUCGAGAACAUCUUCGGAUGCAGAGGAGGCAGGCUUCGGUGGCGCGAUAGCGCCAACGUCCUCAACCUCCAAUGCAUCCCACCACAUGAUGAUGCCUGAAGAGCCUUGGUUUUUUG [U9G] | 0.36
GACCAAUCGGCCCUCAGAGCUCGGGAACAUCUUCGGAUGCAGAGGAGGCAGGCUUCGGUGGCGCGAUAGCGCUAACGUCCUCAACCUCCAAUGCAUCCCACCACAUGAUGAUGCCUGAAGAGCCUUGGUUUUUUG [U9G A24G C73U] | -0.355
